From patent publication US20110118131A1 (published 2011)

B1: XPA23 light chain R31T (Fab, V domains shown)
VH: EVQLLESGGGLVQPGGSLRLSCAASGFTFSKYFMFWVRQAPGKGLEWVSVISPSGGMTRYADSVKGRFTISRDNSKNTLYLQMNSLRAEDTAVYYCARVGYGGNSDYWGQGTLVTVSS
VL: DIQMTQSPSSVSASVGDRLTIICRASQDINTWLAWYQQTPGNAPKLLIHSATSLQSGVPSRFSGSGSGTDFTLTINSLQPEDFATYYCQQADSFPLTFGGGTKVEIK
B2: XPA23 light chain R31W (Fab, V domains shown)
VH: EVQLLESGGGLVQPGGSLRLSCAASGFTFSKYFMFWVRQAPGKGLEWVSVISPSGGMTRYADSVKGRFTISRDNSKNTLYLQMNSLRAEDTAVYYCARVGYGGNSDYWGQGTLVTVSS
VL: DIQMTQSPSSVSASVGDRLTIICRASQDINWWLAWYQQTPGNAPKLLIHSATSLQSGVPSRFSGSGSGTDFTLTINSLQPEDFATYYCQQADSFPLTFGGGTKVEIK
B3: XPA23 light chain S50R (Fab, V domains shown)
VH: EVQLLESGGGLVQPGGSLRLSCAASGFTFSKYFMFWVRQAPGKGLEWVSVISPSGGMTRYADSVKGRFTISRDNSKNTLYLQMNSLRAEDTAVYYCARVGYGGNSDYWGQGTLVTVSS
VL: DIQMTQSPSSVSASVGDRLTIICRASQDINRWLAWYQQTPGNAPKLLIHRATSLQSGVPSRFSGSGSGTDFTLTINSLQPEDFATYYCQQADSFPLTFGGGTKVEIK
B4: XPA23 light chain S50I (Fab, V domains shown)
VH: EVQLLESGGGLVQPGGSLRLSCAASGFTFSKYFMFWVRQAPGKGLEWVSVISPSGGMTRYADSVKGRFTISRDNSKNTLYLQMNSLRAEDTAVYYCARVGYGGNSDYWGQGTLVTVSS
VL: DIQMTQSPSSVSASVGDRLTIICRASQDINRWLAWYQQTPGNAPKLLIHIATSLQSGVPSRFSGSGSGTDFTLTINSLQPEDFATYYCQQADSFPLTFGGGTKVEIK
B5: XPA23 light chain S50N (Fab, V domains shown)
VH: EVQLLESGGGLVQPGGSLRLSCAASGFTFSKYFMFWVRQAPGKGLEWVSVISPSGGMTRYADSVKGRFTISRDNSKNTLYLQMNSLRAEDTAVYYCARVGYGGNSDYWGQGTLVTVSS
VL: DIQMTQSPSSVSASVGDRLTIICRASQDINRWLAWYQQTPGNAPKLLIHNATSLQSGVPSRFSGSGSGTDFTLTINSLQPEDFATYYCQQADSFPLTFGGGTKVEIK
B6: XPA23 light chain S50A (Fab, V domains shown)
VH: EVQLLESGGGLVQPGGSLRLSCAASGFTFSKYFMFWVRQAPGKGLEWVSVISPSGGMTRYADSVKGRFTISRDNSKNTLYLQMNSLRAEDTAVYYCARVGYGGNSDYWGQGTLVTVSS
VL: DIQMTQSPSSVSASVGDRLTIICRASQDINRWLAWYQQTPGNAPKLLIHAATSLQSGVPSRFSGSGSGTDFTLTINSLQPEDFATYYCQQADSFPLTFGGGTKVEIK
B7: XPA23 light chain S50G (Fab, V domains shown)
VH: EVQLLESGGGLVQPGGSLRLSCAASGFTFSKYFMFWVRQAPGKGLEWVSVISPSGGMTRYADSVKGRFTISRDNSKNTLYLQMNSLRAEDTAVYYCARVGYGGNSDYWGQGTLVTVSS
VL: DIQMTQSPSSVSASVGDRLTIICRASQDINRWLAWYQQTPGNAPKLLIHGATSLQSGVPSRFSGSGSGTDFTLTINSLQPEDFATYYCQQADSFPLTFGGGTKVEIK
B8: XPA23 light chain S50Q (Fab, V domains shown)
VH: EVQLLESGGGLVQPGGSLRLSCAASGFTFSKYFMFWVRQAPGKGLEWVSVISPSGGMTRYADSVKGRFTISRDNSKNTLYLQMNSLRAEDTAVYYCARVGYGGNSDYWGQGTLVTVSS
VL: DIQMTQSPSSVSASVGDRLTIICRASQDINRWLAWYQQTPGNAPKLLIHQATSLQSGVPSRFSGSGSGTDFTLTINSLQPEDFATYYCQQADSFPLTFGGGTKVEIK
B9: XPA23 light chain S50T (Fab, V domains shown)
VH: EVQLLESGGGLVQPGGSLRLSCAASGFTFSKYFMFWVRQAPGKGLEWVSVISPSGGMTRYADSVKGRFTISRDNSKNTLYLQMNSLRAEDTAVYYCARVGYGGNSDYWGQGTLVTVSS
VL: DIQMTQSPSSVSASVGDRLTIICRASQDINRWLAWYQQTPGNAPKLLIHTATSLQSGVPSRFSGSGSGTDFTLTINSLQPEDFATYYCQQADSFPLTFGGGTKVEIK
B10: XPA23 light chain S50P (Fab, V domains shown)
VH: EVQLLESGGGLVQPGGSLRLSCAASGFTFSKYFMFWVRQAPGKGLEWVSVISPSGGMTRYADSVKGRFTISRDNSKNTLYLQMNSLRAEDTAVYYCARVGYGGNSDYWGQGTLVTVSS
VL: DIQMTQSPSSVSASVGDRLTIICRASQDINRWLAWYQQTPGNAPKLLIHPATSLQSGVPSRFSGSGSGTDFTLTINSLQPEDFATYYCQQADSFPLTFGGGTKVEIK
B11: XPA23 light chain S50D (Fab, V domains shown)
VH: EVQLLESGGGLVQPGGSLRLSCAASGFTFSKYFMFWVRQAPGKGLEWVSVISPSGGMTRYADSVKGRFTISRDNSKNTLYLQMNSLRAEDTAVYYCARVGYGGNSDYWGQGTLVTVSS
VL: DIQMTQSPSSVSASVGDRLTIICRASQDINRWLAWYQQTPGNAPKLLIHDATSLQSGVPSRFSGSGSGTDFTLTINSLQPEDFATYYCQQADSFPLTFGGGTKVEIK
B12: XPA23 light chain S50K (Fab, V domains shown)
VH: EVQLLESGGGLVQPGGSLRLSCAASGFTFSKYFMFWVRQAPGKGLEWVSVISPSGGMTRYADSVKGRFTISRDNSKNTLYLQMNSLRAEDTAVYYCARVGYGGNSDYWGQGTLVTVSS
VL: DIQMTQSPSSVSASVGDRLTIICRASQDINRWLAWYQQTPGNAPKLLIHKATSLQSGVPSRFSGSGSGTDFTLTINSLQPEDFATYYCQQADSFPLTFGGGTKVEIK
B13: XPA23 light chain S50W (Fab, V domains shown)
VH: EVQLLESGGGLVQPGGSLRLSCAASGFTFSKYFMFWVRQAPGKGLEWVSVISPSGGMTRYADSVKGRFTISRDNSKNTLYLQMNSLRAEDTAVYYCARVGYGGNSDYWGQGTLVTVSS
VL: DIQMTQSPSSVSASVGDRLTIICRASQDINRWLAWYQQTPGNAPKLLIHWATSLQSGVPSRFSGSGSGTDFTLTINSLQPEDFATYYCQQADSFPLTFGGGTKVEIK
B14: XPA23 light chain S50F (Fab, V domains shown)
VH: EVQLLESGGGLVQPGGSLRLSCAASGFTFSKYFMFWVRQAPGKGLEWVSVISPSGGMTRYADSVKGRFTISRDNSKNTLYLQMNSLRAEDTAVYYCARVGYGGNSDYWGQGTLVTVSS
VL: DIQMTQSPSSVSASVGDRLTIICRASQDINRWLAWYQQTPGNAPKLLIHFATSLQSGVPSRFSGSGSGTDFTLTINSLQPEDFATYYCQQADSFPLTFGGGTKVEIK
B15: XPA23 light chain S50Y (Fab, V domains shown)
VH: EVQLLESGGGLVQPGGSLRLSCAASGFTFSKYFMFWVRQAPGKGLEWVSVISPSGGMTRYADSVKGRFTISRDNSKNTLYLQMNSLRAEDTAVYYCARVGYGGNSDYWGQGTLVTVSS
VL: DIQMTQSPSSVSASVGDRLTIICRASQDINRWLAWYQQTPGNAPKLLIHYATSLQSGVPSRFSGSGSGTDFTLTINSLQPEDFATYYCQQADSFPLTFGGGTKVEIK
B16: XPA23 light chain S53D (Fab, V domains shown)
VH: EVQLLESGGGLVQPGGSLRLSCAASGFTFSKYFMFWVRQAPGKGLEWVSVISPSGGMTRYADSVKGRFTISRDNSKNTLYLQMNSLRAEDTAVYYCARVGYGGNSDYWGQGTLVTVSS
VL: DIQMTQSPSSVSASVGDRLTIICRASQDINRWLAWYQQTPGNAPKLLIHSATDLQSGVPSRFSGSGSGTDFTLTINSLQPEDFATYYCQQADSFPLTFGGGTKVEIK
B17: XPA23 light chain S50V (Fab, V domains shown)
VH: EVQLLESGGGLVQPGGSLRLSCAASGFTFSKYFMFWVRQAPGKGLEWVSVISPSGGMTRYADSVKGRFTISRDNSKNTLYLQMNSLRAEDTAVYYCARVGYGGNSDYWGQGTLVTVSS
VL: DIQMTQSPSSVSASVGDRLTIICRASQDINRWLAWYQQTPGNAPKLLIHVATSLQSGVPSRFSGSGSGTDFTLTINSLQPEDFATYYCQQADSFPLTFGGGTKVEIK
B18: XPA23 light chain S50E (Fab, V domains shown)
VH: EVQLLESGGGLVQPGGSLRLSCAASGFTFSKYFMFWVRQAPGKGLEWVSVISPSGGMTRYADSVKGRFTISRDNSKNTLYLQMNSLRAEDTAVYYCARVGYGGNSDYWGQGTLVTVSS
VL: DIQMTQSPSSVSASVGDRLTIICRASQDINRWLAWYQQTPGNAPKLLIHEATSLQSGVPSRFSGSGSGTDFTLTINSLQPEDFATYYCQQADSFPLTFGGGTKVEIK
B19: XPA23 light chain S50L (Fab, V domains shown)
VH: EVQLLESGGGLVQPGGSLRLSCAASGFTFSKYFMFWVRQAPGKGLEWVSVISPSGGMTRYADSVKGRFTISRDNSKNTLYLQMNSLRAEDTAVYYCARVGYGGNSDYWGQGTLVTVSS
VL: DIQMTQSPSSVSASVGDRLTIICRASQDINRWLAWYQQTPGNAPKLLIHLATSLQSGVPSRFSGSGSGTDFTLTINSLQPEDFATYYCQQADSFPLTFGGGTKVEIK
B20: XPA23 light chain S50H (Fab, V domains shown)
VH: EVQLLESGGGLVQPGGSLRLSCAASGFTFSKYFMFWVRQAPGKGLEWVSVISPSGGMTRYADSVKGRFTISRDNSKNTLYLQMNSLRAEDTAVYYCARVGYGGNSDYWGQGTLVTVSS
VL: DIQMTQSPSSVSASVGDRLTIICRASQDINRWLAWYQQTPGNAPKLLIHHATSLQSGVPSRFSGSGSGTDFTLTINSLQPEDFATYYCQQADSFPLTFGGGTKVEIK
B21: XPA23 light chain R31V (Fab, V domains shown)
VH: EVQLLESGGGLVQPGGSLRLSCAASGFTFSKYFMFWVRQAPGKGLEWVSVISPSGGMTRYADSVKGRFTISRDNSKNTLYLQMNSLRAEDTAVYYCARVGYGGNSDYWGQGTLVTVSS
VL: DIQMTQSPSSVSASVGDRLTIICRASQDINVWLAWYQQTPGNAPKLLIHSATSLQSGVPSRFSGSGSGTDFTLTINSLQPEDFATYYCQQADSFPLTFGGGTKVEIK
B22: XPA23 light chain R31Y (Fab, V domains shown)
VH: EVQLLESGGGLVQPGGSLRLSCAASGFTFSKYFMFWVRQAPGKGLEWVSVISPSGGMTRYADSVKGRFTISRDNSKNTLYLQMNSLRAEDTAVYYCARVGYGGNSDYWGQGTLVTVSS
VL: DIQMTQSPSSVSASVGDRLTIICRASQDINYWLAWYQQTPGNAPKLLIHSATSLQSGVPSRFSGSGSGTDFTLTINSLQPEDFATYYCQQADSFPLTFGGGTKVEIK

What follows are binders tested against T1, IL-1β (UniProt P01584 117-269) (assay: Biacore, periplasmic extract).
T1 construct: Antigen immobilised on the Biacore chip
With B1 the “fold difference in affinity vs original” value was 0.24 fold.
With B2 the “fold difference in affinity vs original” value was 0.43 fold.
B3: no binding.
With B4 the “fold difference in affinity vs original” value was 0.25 fold.
In the case of B5, the “fold difference in affinity vs original” value is reported as 0.25 fold.
With B6 the “fold difference in affinity vs original” value was 0.13 fold.
For B7, the “fold difference in affinity vs original” value was 0.14 fold.
In the case of B8, the “fold difference in affinity vs original” value is reported as 0.21 fold.
With B9 the “fold difference in affinity vs original” value was 0.87 fold.
B10: no binding.
B11: no binding.
B12 was tested, and the “fold difference in affinity vs original” value was 0.1 fold.
With B13 the “fold difference in affinity vs original” value was 0.02 fold.
B14: no binding.
In the case of B15, the “fold difference in affinity vs original” value is reported as 0.05 fold.
B16: no binding.
With B17 the “fold difference in affinity vs original” value was 0.21 fold.
With B18 the “fold difference in affinity vs original” value was 0.02 fold.
For B19, the “fold difference in affinity vs original” value was 0.49 fold.
B20 was tested, and the “fold difference in affinity vs original” value was 0.05 fold.
With B21 the “fold difference in affinity vs original” value was 0.44 fold.
B22: no binding.
